The values below come from PMC9416547 (Nucleic Acid Therapeutics, 2022).

Test [1] concerns the target T1, MBP-tagged NAT10 CTD (541-1025 AA) (UniProt Q9H0A0 541-1025).
T1 sequence (looked up): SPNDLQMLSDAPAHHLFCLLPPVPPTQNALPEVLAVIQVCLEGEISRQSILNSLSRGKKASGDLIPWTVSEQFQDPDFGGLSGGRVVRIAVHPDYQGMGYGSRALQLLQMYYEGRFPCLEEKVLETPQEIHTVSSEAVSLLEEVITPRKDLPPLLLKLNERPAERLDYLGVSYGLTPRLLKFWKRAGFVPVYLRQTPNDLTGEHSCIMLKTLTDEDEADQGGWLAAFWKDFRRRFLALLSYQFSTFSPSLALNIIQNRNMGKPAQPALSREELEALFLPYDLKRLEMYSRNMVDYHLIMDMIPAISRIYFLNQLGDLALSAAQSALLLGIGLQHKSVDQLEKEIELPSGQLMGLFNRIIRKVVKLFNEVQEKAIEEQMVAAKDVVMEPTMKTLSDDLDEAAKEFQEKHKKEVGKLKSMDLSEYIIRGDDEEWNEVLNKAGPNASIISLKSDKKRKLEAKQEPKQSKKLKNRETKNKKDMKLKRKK
The experiment in a line: pull-down.

Test [2] deals with T2, MBP-tagged full-length NAT10 (UniProt Q9H0A0 1-1025).
T2 sequence (looked up): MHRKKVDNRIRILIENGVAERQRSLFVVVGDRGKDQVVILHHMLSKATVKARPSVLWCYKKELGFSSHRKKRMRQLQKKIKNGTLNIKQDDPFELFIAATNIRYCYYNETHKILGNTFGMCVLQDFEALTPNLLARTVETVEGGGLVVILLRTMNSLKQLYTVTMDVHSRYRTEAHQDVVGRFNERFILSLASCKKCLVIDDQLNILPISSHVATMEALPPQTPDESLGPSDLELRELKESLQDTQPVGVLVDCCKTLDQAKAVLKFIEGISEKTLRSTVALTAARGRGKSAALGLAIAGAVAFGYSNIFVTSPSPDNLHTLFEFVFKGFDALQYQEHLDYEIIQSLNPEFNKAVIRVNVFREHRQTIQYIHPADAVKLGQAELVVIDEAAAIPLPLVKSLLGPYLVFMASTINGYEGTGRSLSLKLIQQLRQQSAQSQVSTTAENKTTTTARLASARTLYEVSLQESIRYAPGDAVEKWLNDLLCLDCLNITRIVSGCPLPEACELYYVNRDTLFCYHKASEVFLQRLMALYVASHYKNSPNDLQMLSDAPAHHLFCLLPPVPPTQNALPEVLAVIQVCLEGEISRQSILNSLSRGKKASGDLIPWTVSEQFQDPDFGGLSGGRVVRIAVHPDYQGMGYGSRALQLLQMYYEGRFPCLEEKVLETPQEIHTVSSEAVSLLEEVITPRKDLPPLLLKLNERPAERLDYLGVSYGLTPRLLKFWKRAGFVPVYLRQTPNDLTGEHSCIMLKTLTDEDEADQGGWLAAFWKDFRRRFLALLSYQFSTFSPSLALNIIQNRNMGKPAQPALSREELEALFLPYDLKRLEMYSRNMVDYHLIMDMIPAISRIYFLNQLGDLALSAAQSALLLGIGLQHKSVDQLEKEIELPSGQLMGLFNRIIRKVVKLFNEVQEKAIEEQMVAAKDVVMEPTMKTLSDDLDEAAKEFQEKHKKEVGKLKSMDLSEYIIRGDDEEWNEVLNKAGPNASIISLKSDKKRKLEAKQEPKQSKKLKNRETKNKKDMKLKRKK
The experiment in a line: pull-down.

B1: GST-fused full-length RNase H1 (enzyme, human, UniProt O60930 1-286, looked up)
chain: MSWLLFLAHRVALAALPCRRGSRGFGMFYAVRRGRKTGVFLTWNECRAQVDRFPAARFKKFATEDEAWAFVRKSASPEVSEGHENQHGQESEAKASKRLREPLDGDGHESAEPYAKHMKPSVEPAPPVSRDTFSYMGDFVVVYTDGCCSSNGRRRPRAGIGVYWGPGHPLNVGIRLPGRQTNQRAEIHAACKAIEQAKTQNINKLVLYTDSMFTINGITNWVQGWKKNGWKTSAGKEVINKEDFVALERLTQGMDIQWMHVPGHSGFIGNEEADRLAREGAKQSED
In the case of B1, the binding result in test [1] and in test [2] was “binds” throughout.
